Results: publication PMC7505563

Molecular target: T1, MatP, tag cleaved (Escherichia coli, UniProt P0A8N0 1-150)
T1 sequence: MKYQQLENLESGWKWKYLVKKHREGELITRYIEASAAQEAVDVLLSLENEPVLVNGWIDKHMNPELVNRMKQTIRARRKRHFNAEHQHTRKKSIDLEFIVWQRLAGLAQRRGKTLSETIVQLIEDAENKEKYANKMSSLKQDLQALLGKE
Test: crystal structure

B1: matS 19mer (dsDNA)
DNA 1: TTCGTGACATTGTCACGAA
DNA 2: TTCGTGACAATGTCACGAA
binding result: binds
